Data as given in publication PMC3601957, “Structural Basis of Rap Phosphatase Inhibition by Phr Peptides” (PLoS Biology, 2013).

Tests used:
[1] = biological target: T1, RapF (Bacillus subtilis, UniProt P71002); assay: Limited proteolysis with trypsin, wild-type RapF; format: biochemical, B. subtilis; details: wild-type RapF 1.5 mg/ml, peptide 1 mM, trypsin 1:10,000, 37°C, 0-90 min, SDS-PAGE / native PAGE (60 min); PhrA and PhrE: unpublished data
T1 construct: 6xHis (N, cleaved yes); made in house; host or cells: Escherichia coli BL21 RIL
T1 sequence (P71002 whole entry, looked up): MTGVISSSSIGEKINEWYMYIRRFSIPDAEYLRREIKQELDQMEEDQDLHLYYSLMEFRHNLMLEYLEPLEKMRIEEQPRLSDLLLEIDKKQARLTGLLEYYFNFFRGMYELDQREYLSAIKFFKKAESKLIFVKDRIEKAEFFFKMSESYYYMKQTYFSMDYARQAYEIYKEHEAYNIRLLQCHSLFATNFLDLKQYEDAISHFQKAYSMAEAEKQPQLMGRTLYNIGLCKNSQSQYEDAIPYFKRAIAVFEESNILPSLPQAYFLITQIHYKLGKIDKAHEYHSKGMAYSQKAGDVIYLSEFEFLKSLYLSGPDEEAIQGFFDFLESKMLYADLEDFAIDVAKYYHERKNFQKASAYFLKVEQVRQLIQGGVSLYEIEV
Method: Wild-type RapF and mutant variants (RapF^E303K, RapF^E303A, RapF^N227A, and RapF^D194A) at a concentration of 1.5 mg/ml were pre-incubated in lysis buffer (10 mM Tris-HCl [pH 8], 0.1 mM EDTA, 1 mM β-mercaptoethanol, 100 mM NaCl, 5% glycerol, and 5 mM CaCl2) in the presence (1 mM) or absence of inhibitory peptides at room temperature for 30 min. The protein was subjected to proteolysis by trypsin (1∶10,000) at 37°C and aliquots of the reaction mixture were taken after 0, 10, 30, and 90 min of incubation, mixed with SDS–PAGE loading buffer and immediately boiled to stop the enzyme reaction. Samples were then separated on 12% acrylamide SDS–PAGE and stained with Coomassie brilliant blue. For the peptide titration experiments, RapF was incubated in lysis buffer with increasing concentrations of PhrF at room temperature for 30 min and subjected to limited proteolysis with trypsin(1∶10,000) at 37°C for 60 min. The reactions were stopped SDS–PAGE loading buffer and analyzed by SDS–PAGE.

[2] = tested on: RapA; details: cited from earlier work
Excerpt: The RNPP family of Gram-positive quorum sensors presents a characteristic C-terminal TPR domain with seven TPR repeats for the structurally known Raps (RapF and RapH) (Figures 1E and S3),[31]. The RapF TPR domain folded in a large superhelix to generate a pseudo circular structure that was closed in a wide channel (8,588 Å^3, calculated by the CASTp software) by the interaction of the terminal part of TPR7 (and the following C-terminal tail) with the initial part of TPR1 (Figure 1). As a channel, the generated ring-like structure was open on both faces (Figures S4, upper panel) ... || Peptide anchoring should be independent of its sequence. Thus, it is primarily mediated by interactions with the peptide main chain. These interactions are mainly polar in nature and involve the side chain hydrogen bonds and salt bridges of Tyr66, Tyr152, Gln183, Arg223, Asn227, Gln263, and Asp338 with the PhrF backbone (Figure 2). Additionally, the conserved Arg at position 2 of the Phr peptides is anchored by a salt bridge with the side chain of a conserved Asp residue (Asp194 in RapF) from TPR3 (Figure 2). […] The conserved asparagine in the RNPP family (Asn227 in RapF) interacts with the PhrF backbone and supports the key role of this residue in peptide accommodation.

[3] = biological target: T1, RapF; assay: Thermal-shift peptide binding assay, wild-type RapF; parameters: species or system B. subtilis; details: peptide 1 mM, PhrA and PhrE: unpublished data
Method: The thermal-shift assay was conducted in a 7500 Fast Real-time PCR System (Applied Biosystems). Final melt conditions were 20 mM Tris-HCl (pH 8), 100 mM NaCl, 20 µM RapF, and 5× SYPRO Orange (Sigma-Aldrich). The final concentration of the inhibitory peptides was 1 mM when they were present. The assays were carried out at a final volume of 20 µl in 96-well PCR plates. Samples were heated at 1°C/min. Fluorescent intensity was plotted versus temperature and integrated with the GraphPad Prism 4 software using a Boltzmann model to calculate melting temperatures.

[4] = biological target: T2, RapF^E303K (B. subtilis, UniProt P71002 1-381, E303K); assay: native gel or EMSA; titration on 8% native gel; 20 µg protein, peptide 50 nM to 1.2 mM in 20 µl buffer A, 15 min at room temperature; midpoint of the transition taken as the apparent Kd; details: both partners purified
T2 construct: RapF of Bacillus subtilis with Glu303 changed to Lys, made from pPROEX-RapF by site-directed mutagenesis; Same construct as m1 with the point mutation; also called RapF Glu303Lys; source: E. coli BL21 RIL, purified as native RapF; not shown: His6, N-terminal, cleaved
T2 sequence: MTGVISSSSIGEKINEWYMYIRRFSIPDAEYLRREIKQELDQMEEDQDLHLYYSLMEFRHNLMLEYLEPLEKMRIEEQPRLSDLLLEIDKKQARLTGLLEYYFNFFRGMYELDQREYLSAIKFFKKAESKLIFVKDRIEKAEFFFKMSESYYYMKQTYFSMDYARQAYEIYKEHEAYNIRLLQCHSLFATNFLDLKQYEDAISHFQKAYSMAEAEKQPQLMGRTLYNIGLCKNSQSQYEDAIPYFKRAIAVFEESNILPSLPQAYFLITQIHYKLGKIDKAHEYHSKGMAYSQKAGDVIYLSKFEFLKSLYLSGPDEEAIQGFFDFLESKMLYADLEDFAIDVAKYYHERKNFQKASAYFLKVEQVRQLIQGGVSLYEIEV

[5] = biological target: T3, RapF^E303A (B. subtilis, UniProt P71002 1-381, E303A); assay: as above; details: both partners purified
T3 construct: RapF of Bacillus subtilis with Glu303 changed to Ala, made from pPROEX-RapF by site-directed mutagenesis; Same construct as m1 with the point mutation; also called RapF Glu303Ala; source: E. coli BL21 RIL, purified as native RapF; not shown: His6, N-terminal, cleaved
T3 sequence: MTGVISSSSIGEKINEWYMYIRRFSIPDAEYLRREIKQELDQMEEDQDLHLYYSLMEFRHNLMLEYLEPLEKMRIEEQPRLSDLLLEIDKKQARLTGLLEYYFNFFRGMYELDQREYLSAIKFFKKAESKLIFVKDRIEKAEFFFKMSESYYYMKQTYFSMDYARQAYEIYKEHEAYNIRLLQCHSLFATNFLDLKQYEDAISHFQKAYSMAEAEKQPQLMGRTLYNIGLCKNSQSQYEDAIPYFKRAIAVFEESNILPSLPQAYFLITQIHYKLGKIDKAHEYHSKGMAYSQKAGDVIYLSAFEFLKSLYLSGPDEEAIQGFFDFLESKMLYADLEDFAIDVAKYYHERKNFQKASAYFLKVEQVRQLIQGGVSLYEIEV

[6] = biological target: T4, RapF (B. subtilis, UniProt P71002 1-381); assay: as above; details: both partners purified
T4 construct: RapF of Bacillus subtilis, amplified from genomic DNA and cloned in pPROEX-HTa; The text speaks of residues up to Val381, which fits the whole protein; also called wild-type RapF; native RapF; source: E. coli BL21 RIL, purified (HisTrap, TEV digestion, Superdex 200); not shown: His6, N-terminal, cleaved
T4 sequence: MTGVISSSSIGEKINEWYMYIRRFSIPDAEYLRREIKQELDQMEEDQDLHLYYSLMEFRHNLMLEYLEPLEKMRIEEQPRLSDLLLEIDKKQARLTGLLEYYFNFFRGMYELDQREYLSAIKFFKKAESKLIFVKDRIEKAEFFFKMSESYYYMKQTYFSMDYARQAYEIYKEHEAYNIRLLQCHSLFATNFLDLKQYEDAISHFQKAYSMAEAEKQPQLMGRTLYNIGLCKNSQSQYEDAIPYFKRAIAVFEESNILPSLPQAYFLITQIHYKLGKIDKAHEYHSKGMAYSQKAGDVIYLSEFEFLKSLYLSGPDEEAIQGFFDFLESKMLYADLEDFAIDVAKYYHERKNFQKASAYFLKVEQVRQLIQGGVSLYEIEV

[7] = biological target: T4, RapF; assay: thermal-shift assay (SYPRO Orange); 20 µM RapF, peptides 1 mM; 20 mM Tris-HCl pH 8, 100 mM NaCl; heated at 1°C/min; details: both partners purified
[8] = biological target: T5, RapF^D194A (B. subtilis, UniProt P71002 1-381, D194A)
T5 sequence: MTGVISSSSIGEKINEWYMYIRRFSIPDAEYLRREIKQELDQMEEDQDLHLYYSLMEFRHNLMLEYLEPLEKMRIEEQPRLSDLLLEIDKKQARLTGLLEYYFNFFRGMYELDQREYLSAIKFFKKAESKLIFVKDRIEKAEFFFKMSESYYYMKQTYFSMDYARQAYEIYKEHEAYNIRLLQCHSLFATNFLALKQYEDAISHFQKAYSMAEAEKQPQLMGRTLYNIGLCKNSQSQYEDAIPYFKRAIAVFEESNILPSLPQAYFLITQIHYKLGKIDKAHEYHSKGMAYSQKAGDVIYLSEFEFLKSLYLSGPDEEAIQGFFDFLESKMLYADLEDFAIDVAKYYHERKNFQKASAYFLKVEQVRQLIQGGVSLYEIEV

[9] = biological target: T6, RapF^N227A (B. subtilis, UniProt P71002 1-381, N227A)
T6 sequence: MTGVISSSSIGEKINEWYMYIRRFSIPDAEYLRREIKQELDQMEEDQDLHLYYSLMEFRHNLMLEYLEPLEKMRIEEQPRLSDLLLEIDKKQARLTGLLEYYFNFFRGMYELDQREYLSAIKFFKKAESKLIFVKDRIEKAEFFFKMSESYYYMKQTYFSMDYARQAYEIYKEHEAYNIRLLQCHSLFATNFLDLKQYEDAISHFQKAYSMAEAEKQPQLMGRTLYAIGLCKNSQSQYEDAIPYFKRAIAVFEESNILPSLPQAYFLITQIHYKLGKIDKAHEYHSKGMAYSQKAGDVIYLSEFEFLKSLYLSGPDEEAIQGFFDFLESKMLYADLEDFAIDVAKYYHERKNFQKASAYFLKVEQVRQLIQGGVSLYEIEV

Molecule: PhrA: PhrA, inhibitor peptide of RapA; non RapF partner peptide (ARNQT)
- protection of RapF against trypsin digestion [1]: did not protect against trypsin attack
- sensitivity of RapA Asp192 and His260 mutants to peptide ([2]; RapA Asp192 and His260 mutants, Spo0F∼P dephosphorylation unaffected): insensitive to the inhibitory activity of PhrA
- binding to RapA Tyr224 or His260 to alanine mutants ([2]; RapA Tyr224Ala or His260Ala, no effect on enzymatic activity): completely abolishes the capacity to bind PhrA
- binding to RapA mutant, Asn to Ala (position of RapF Asn227) ([2]; RapA mutant, intact capacity to bind Spo0F): impaired capacity to bind the PhrA peptide
- requirement for inhibition of RapA [2]: requirement of the free terminal carboxylate group
- sensitivity of RapA mutants at positions of RapF Tyr226 and Leu230 ([2]; functional RapA variants): completely insensitive to the PhrA peptide
- thermal stabilization by peptide [3]: presented identical melting transitions to those observed in the absence of peptide

Molecule: PhrE: PhrE, non RapF partner peptide (SRNVT)
- protection of RapF against trypsin digestion [1]: did not protect against trypsin attack
- thermal stabilization by peptide [3]: presented identical melting transitions to those observed in the absence of peptide

B1: PhrC (peptide)
peptide: ERGMT
notes: mature active form of the PhrC precursor; also called PhrC peptide; RapC (PhrC) peptide
- Kd [4]: 19.6 µM

B2: PhrF (peptide)
peptide: QRGMI
notes: mature active form of the PhrF precursor; The purchase from Genescript is stated for the crystallisation; no other source is named; also called PhrF peptide; source: bought: Genescript
- Kd [4]: 13.2 µM
- Kd [5]: 29 µM
- Kd [6]: 3.1 µM
- increment in the melting temperature of RapF with PhrF [7]: ~20 °C
- Kd [8]: > 1200 µM
- Kd [9]: > 1200 µM
